Measurements: patent US12630600B2 (MEDIMMUNE LIMITED, priority 2022, dated 2026)
Starred links: 1 amine or outer side, 2 acyl side, 3 side chain; linkers in the order of their positions; H or OH if unused. Non-standard residues stand in square brackets, D forms with d. Groups on a side chain read outwards from the residue. No end group written: not given here. *: point of attachment. C18 diacid = O=C(O)CCCCCCCCCCCCCCCCC(=O)*; γGlu = O=C(O)[C@H](CCC(=O)[*:2])N[*:1]; αMeF = C[C@](N)(Cc1ccccc1)C(=O)O; AEEA = NCCOCCOCC(=O)O; Aib = CC(C)(N)C(=O)O

How the values were obtained:
[1] = biological target: human GLP-1 receptor (human, UniProt P43220); experiment: cell-based or functional assay
[2] = biological target: human glucagon receptor (human, UniProt P47871); experiment: cell-based or functional assay

Row | Binder | cAMP production EC50 [1] [nM] | cAMP production EC50 [2] [nM]
1 | H[Aib]QGTFTSDVSK[αMeF]LDSK([AEEA-AEEA-γGlu-C18 diacid])RAQDFVQWLE[Aib]T-OH (N-terminus assumed; SMILES CC(C)C[C@H](NC(=O)[C@H](Cc1c[nH]c2ccccc12)NC(=O)[C@H](CCC(N)=O)NC(=O)[C@@H](NC(=O)[C@H](Cc1ccccc1)NC(=O)[C@H](CC(=O)O)NC(=O)[C@H](CCC(N)=O)NC(=O)[C@H](C)NC(=O)[C@H](CCCNC(=N)N)NC(=O)[C@H](CCCCNC(=O)COCCOCCNC(=O)COCCOCCNC(=O)CC[C@H](NC(=O)CCCCCCCCCCCCCCCCC(=O)O)C(=O)O)NC(=O)[C@H](CO)NC(=O)[C@H](CC(=O)O)NC(=O)[C@H](CC(C)C)NC(=O)[C@](C)(Cc1ccccc1)NC(=O)[C@H](CCCCN)NC(=O)[C@H](CO)NC(=O)[C@@H](NC(=O)[C@H](CC(=O)O)NC(=O)[C@H](CO)NC(=O)[C@@H](NC(=O)[C@H](Cc1ccccc1)NC(=O)[C@@H](NC(=O)CNC(=O)[C@H](CCC(N)=O)NC(=O)C(C)(C)NC(=O)[C@@H](N)Cc1c[nH]cn1)[C@@H](C)O)[C@@H](C)O)C(C)C)C(C)C)C(=O)N[C@@H](CCC(=O)O)C(=O)NC(C)(C)C(=O)N[C@H](C(=O)O)[C@@H](C)O) [Peptide 33] | 0.213 | 0.548
2 | H[Aib]QGTFTSDVSK[αMeF]LDTK([γGlu-γGlu-AEEA-AEEA-γGlu-γGlu-C18 diacid])RARDFVQWLLE[Aib]G-OH (N-terminus assumed; SMILES CC(C)C[C@H](NC(=O)[C@H](Cc1c[nH]c2ccccc12)NC(=O)[C@H](CCC(N)=O)NC(=O)[C@@H](NC(=O)[C@H](Cc1ccccc1)NC(=O)[C@H](CC(=O)O)NC(=O)[C@H](CCCNC(=N)N)NC(=O)[C@H](C)NC(=O)[C@H](CCCNC(=N)N)NC(=O)[C@H](CCCCNC(=O)CC[C@H](NC(=O)CC[C@H](NC(=O)COCCOCCNC(=O)COCCOCCNC(=O)CC[C@H](NC(=O)CC[C@H](NC(=O)CCCCCCCCCCCCCCCCC(=O)O)C(=O)O)C(=O)O)C(=O)O)C(=O)O)NC(=O)[C@@H](NC(=O)[C@H](CC(=O)O)NC(=O)[C@H](CC(C)C)NC(=O)[C@](C)(Cc1ccccc1)NC(=O)[C@H](CCCCN)NC(=O)[C@H](CO)NC(=O)[C@@H](NC(=O)[C@H](CC(=O)O)NC(=O)[C@H](CO)NC(=O)[C@@H](NC(=O)[C@H](Cc1ccccc1)NC(=O)[C@@H](NC(=O)CNC(=O)[C@H](CCC(N)=O)NC(=O)C(C)(C)NC(=O)[C@@H](N)Cc1c[nH]cn1)[C@@H](C)O)[C@@H](C)O)C(C)C)[C@@H](C)O)C(C)C)C(=O)N[C@@H](CC(C)C)C(=O)N[C@@H](CCC(=O)O)C(=O)NC(C)(C)C(=O)NCC(=O)O) [Peptide 519] | 0.172 | 0.386
3 | H[Aib]QGTFTSDVSK[αMeF]LDSK([AEEA-AEEA-γGlu-C18 diacid])RAEDFVQWLL[Aib]T-OH (N-terminus assumed; SMILES CC(C)C[C@H](NC(=O)[C@H](Cc1c[nH]c2ccccc12)NC(=O)[C@H](CCC(N)=O)NC(=O)[C@@H](NC(=O)[C@H](Cc1ccccc1)NC(=O)[C@H](CC(=O)O)NC(=O)[C@H](CCC(=O)O)NC(=O)[C@H](C)NC(=O)[C@H](CCCNC(=N)N)NC(=O)[C@H](CCCCNC(=O)COCCOCCNC(=O)COCCOCCNC(=O)CC[C@H](NC(=O)CCCCCCCCCCCCCCCCC(=O)O)C(=O)O)NC(=O)[C@H](CO)NC(=O)[C@H](CC(=O)O)NC(=O)[C@H](CC(C)C)NC(=O)[C@](C)(Cc1ccccc1)NC(=O)[C@H](CCCCN)NC(=O)[C@H](CO)NC(=O)[C@@H](NC(=O)[C@H](CC(=O)O)NC(=O)[C@H](CO)NC(=O)[C@@H](NC(=O)[C@H](Cc1ccccc1)NC(=O)[C@@H](NC(=O)CNC(=O)[C@H](CCC(N)=O)NC(=O)C(C)(C)NC(=O)[C@@H](N)Cc1c[nH]cn1)[C@@H](C)O)[C@@H](C)O)C(C)C)C(C)C)C(=O)N[C@@H](CC(C)C)C(=O)NC(C)(C)C(=O)N[C@H](C(=O)O)[C@@H](C)O) [Peptide 37] | 0.0686 | 2.75
4 | H[Aib]QGTFTSDVSK[αMeF]LDSK([AEEA-AEEA-γGlu-C18 diacid])RARDFVQWLL[Aib]T-OH (N-terminus assumed; SMILES CC(C)C[C@H](NC(=O)[C@H](Cc1c[nH]c2ccccc12)NC(=O)[C@H](CCC(N)=O)NC(=O)[C@@H](NC(=O)[C@H](Cc1ccccc1)NC(=O)[C@H](CC(=O)O)NC(=O)[C@H](CCCNC(=N)N)NC(=O)[C@H](C)NC(=O)[C@H](CCCNC(=N)N)NC(=O)[C@H](CCCCNC(=O)COCCOCCNC(=O)COCCOCCNC(=O)CC[C@H](NC(=O)CCCCCCCCCCCCCCCCC(=O)O)C(=O)O)NC(=O)[C@H](CO)NC(=O)[C@H](CC(=O)O)NC(=O)[C@H](CC(C)C)NC(=O)[C@](C)(Cc1ccccc1)NC(=O)[C@H](CCCCN)NC(=O)[C@H](CO)NC(=O)[C@@H](NC(=O)[C@H](CC(=O)O)NC(=O)[C@H](CO)NC(=O)[C@@H](NC(=O)[C@H](Cc1ccccc1)NC(=O)[C@@H](NC(=O)CNC(=O)[C@H](CCC(N)=O)NC(=O)C(C)(C)NC(=O)[C@@H](N)Cc1c[nH]cn1)[C@@H](C)O)[C@@H](C)O)C(C)C)C(C)C)C(=O)N[C@@H](CC(C)C)C(=O)NC(C)(C)C(=O)N[C@H](C(=O)O)[C@@H](C)O) [Peptide 36] | 0.0431 | 0.278
5 | H[Aib]QGTFTSDVSK[αMeF]LDTK([AEEA-AEEA-γGlu-γGlu-C18 diacid])RARDFVQWLLE[Aib]G-OH (N-terminus assumed; SMILES CC(C)C[C@H](NC(=O)[C@H](Cc1c[nH]c2ccccc12)NC(=O)[C@H](CCC(N)=O)NC(=O)[C@@H](NC(=O)[C@H](Cc1ccccc1)NC(=O)[C@H](CC(=O)O)NC(=O)[C@H](CCCNC(=N)N)NC(=O)[C@H](C)NC(=O)[C@H](CCCNC(=N)N)NC(=O)[C@H](CCCCNC(=O)COCCOCCNC(=O)COCCOCCNC(=O)CC[C@H](NC(=O)CC[C@H](NC(=O)CCCCCCCCCCCCCCCCC(=O)O)C(=O)O)C(=O)O)NC(=O)[C@@H](NC(=O)[C@H](CC(=O)O)NC(=O)[C@H](CC(C)C)NC(=O)[C@](C)(Cc1ccccc1)NC(=O)[C@H](CCCCN)NC(=O)[C@H](CO)NC(=O)[C@@H](NC(=O)[C@H](CC(=O)O)NC(=O)[C@H](CO)NC(=O)[C@@H](NC(=O)[C@H](Cc1ccccc1)NC(=O)[C@@H](NC(=O)CNC(=O)[C@H](CCC(N)=O)NC(=O)C(C)(C)NC(=O)[C@@H](N)Cc1c[nH]cn1)[C@@H](C)O)[C@@H](C)O)C(C)C)[C@@H](C)O)C(C)C)C(=O)N[C@@H](CC(C)C)C(=O)N[C@@H](CCC(=O)O)C(=O)NC(C)(C)C(=O)NCC(=O)O) [Peptide 518] | 0.031 | 0.0773
6 | H[Aib]QGTFTSDVSK[αMeF]LDSK([AEEA-AEEA-γGlu-C18 diacid])RAQDFVQWLL[Aib]E-OH (N-terminus assumed; SMILES CC(C)C[C@H](NC(=O)[C@H](Cc1c[nH]c2ccccc12)NC(=O)[C@H](CCC(N)=O)NC(=O)[C@@H](NC(=O)[C@H](Cc1ccccc1)NC(=O)[C@H](CC(=O)O)NC(=O)[C@H](CCC(N)=O)NC(=O)[C@H](C)NC(=O)[C@H](CCCNC(=N)N)NC(=O)[C@H](CCCCNC(=O)COCCOCCNC(=O)COCCOCCNC(=O)CC[C@H](NC(=O)CCCCCCCCCCCCCCCCC(=O)O)C(=O)O)NC(=O)[C@H](CO)NC(=O)[C@H](CC(=O)O)NC(=O)[C@H](CC(C)C)NC(=O)[C@](C)(Cc1ccccc1)NC(=O)[C@H](CCCCN)NC(=O)[C@H](CO)NC(=O)[C@@H](NC(=O)[C@H](CC(=O)O)NC(=O)[C@H](CO)NC(=O)[C@@H](NC(=O)[C@H](Cc1ccccc1)NC(=O)[C@@H](NC(=O)CNC(=O)[C@H](CCC(N)=O)NC(=O)C(C)(C)NC(=O)[C@@H](N)Cc1c[nH]cn1)[C@@H](C)O)[C@@H](C)O)C(C)C)C(C)C)C(=O)N[C@@H](CC(C)C)C(=O)NC(C)(C)C(=O)N[C@@H](CCC(=O)O)C(=O)O) [Peptide 34] | 0.0824 | 0.161
7 | H[Aib]QGTFTSDVSK[αMeF]LDTKRARDFVQWLLE[Aib]G-OH (not fully specified (residue 17)) [Peptide 520] | 0.543 | 1.62
8 | H[Aib]QGTFTSDVSK[αMeF]LDSK([AEEA-AEEA-γGlu-C18 diacid])RAQDFVEWLL[Aib]T-OH (N-terminus assumed; SMILES CC(C)C[C@H](NC(=O)[C@H](Cc1c[nH]c2ccccc12)NC(=O)[C@H](CCC(=O)O)NC(=O)[C@@H](NC(=O)[C@H](Cc1ccccc1)NC(=O)[C@H](CC(=O)O)NC(=O)[C@H](CCC(N)=O)NC(=O)[C@H](C)NC(=O)[C@H](CCCNC(=N)N)NC(=O)[C@H](CCCCNC(=O)COCCOCCNC(=O)COCCOCCNC(=O)CC[C@H](NC(=O)CCCCCCCCCCCCCCCCC(=O)O)C(=O)O)NC(=O)[C@H](CO)NC(=O)[C@H](CC(=O)O)NC(=O)[C@H](CC(C)C)NC(=O)[C@](C)(Cc1ccccc1)NC(=O)[C@H](CCCCN)NC(=O)[C@H](CO)NC(=O)[C@@H](NC(=O)[C@H](CC(=O)O)NC(=O)[C@H](CO)NC(=O)[C@@H](NC(=O)[C@H](Cc1ccccc1)NC(=O)[C@@H](NC(=O)CNC(=O)[C@H](CCC(N)=O)NC(=O)C(C)(C)NC(=O)[C@@H](N)Cc1c[nH]cn1)[C@@H](C)O)[C@@H](C)O)C(C)C)C(C)C)C(=O)N[C@@H](CC(C)C)C(=O)NC(C)(C)C(=O)N[C@H](C(=O)O)[C@@H](C)O) [Peptide 38] | 0.0756 | 0.441
